Consider 73 sequences from the supplement of paper PMC10567573.

The data set in a line: protein stability index of a GFP-peptide fusion (GPS, HEK-293T) (PSI 1-6); higher = more stable. The note with it: c terminus: a fixed tail appended.

± gives the standard deviation.
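Note: 24-mer peptide tiles fused after GFP, lentivirally expressed, FACS-sorted into six equal bins by GFP/DsRed ratio, decoded by Illumina sequencing, PSI is the read-weighted mean bin number.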

With TLELCHDELFADLFNSNHKAGGAG [CEBPD], the protein stability index (treatment: MLN4924 1 uM, 8 h) was determined as 4.24 ± 1.

SSNKKEKKVLNHGYDDDNHDYIVR [DYRK1B] returned a protein stability index (treatment: DMSO) of 4.55 ± 0.22 and a protein stability index (treatment: MLN4924 1 uM, 8 h) of 4.45 ± 0.19.

With DSYYRLVIHRALDREQVSSYNITV [PCDHGA10], the protein stability index was found to be 2.87 ± 0.6 (treatment: DMSO) and 2.44 ± 0.55 (treatment: MLN4924 1 uM, 8 h). Taken in the same sequence, the figures for ECPSMGTNEAACLLDNPLCADVLF [RHOBTB1] were 3.42 ± 0.34 and 3.94 ± 0.48.

VKKKKEEGVIDSSDKEIVAEAERL [EIF5] came in with a protein stability index (treatment: DMSO) of 5.04 ± 0.59 and a protein stability index (treatment: MLN4924 1 uM, 8 h) of 5.46 ± 0.2. Taken in the same sequence, the figures for LSLLGAVGLAAVNSMPVDNRNHNE [CHGB] were 3.35 ± 0.2 and 3.54 ± 0.5. Taken in the same sequence, the figures for RPQSAQSSFPPSPGPSPDVQLATL [AUP1] were 4.34 ± 0.44 and 4.34 ± 0.47.

On to PKPEPPQLVLAYDYSREVNTTEEL [FEM1A], for which the protein stability index is 5.03 ± 0.19 (treatment: DMSO) and 4.94 ± 0.31 (treatment: MLN4924 1 uM, 8 h). Taken in the same sequence, the figures for ELFRLRGIKAQVALRLAELARRRR [NOP53] were 2.36 ± 0.23 and 2.55 ± 0.22. As to GVSFQAISSMADFWDFAQGPLLDS [PKD2L1], the protein stability index worked out at 2.4 ± 0.29 (treatment: DMSO) and 2.87 ± 0.32 (treatment: MLN4924 1 uM, 8 h). Taken in the same sequence, the figures for NKLWELCCQWLKPKMRSKEQILEL [ZNF449] were 2.62 ± 0.35 and 2.9 ± 0.56. For LIRSLFHGFLFMIFQIGVLGFGPT [SOAT1], the protein stability index runs as follows: (treatment: DMSO) 3.52 ± 0.5; (treatment: MLN4924 1 uM, 8 h) 3.28 ± 0.63.

As to IVDIKPANMEDLTEVITASEFHPH [PPP2R2C], the protein stability index by setting is: (treatment: DMSO) 3.92 ± 0.28; (treatment: MLN4924 1 uM, 8 h) 3.9 ± 0.41. Taken in the same sequence, the figures for KKTQETLSQAGQKTSAALSTVGSA [TPD52L2] were 4.87 ± 0.24 and 4.99 ± 0.25.

As to KVQELMSTHELEKKELEENFEKLR [MTUS2], the protein stability index was 4.97 ± 0.54 (treatment: DMSO) and 5.14 ± 0.23 (treatment: MLN4924 1 uM, 8 h). Taken in the same sequence, the figures for AQNAVRLHYGLPVVVKLLHPPSHW [CTNNB1] were 2.32 ± 0.23 and 2.23 ± 0.048. Taken in the same sequence, the figures for GVFVGVISFGQLSDRFGRKKVYLT [SLC22A15] were 2.82 ± 0.43 and 2.7 ± 0.39. Taken in the same sequence, the figures for QSAYDVADMLKQYFRDLPEPLMTN [DLC1] were 2.67 ± 0.32 and 2.72 ± 0.33. With MAGTGLLALRTLPGPSWVRGSGPS [ALKBH7], the protein stability index is, setting by setting: (treatment: DMSO) 2.68 ± 0.19; (treatment: MLN4924 1 uM, 8 h) 2.88 ± 0.11. Taken in the same sequence, the figures for HSNGPTDLSMKGGASTTSTTPSAL [NOL4L] were 4.94 ± 0.19 and 4.94 ± 0.3. Taken in the same sequence, the figures for NSPLHIAALNNHPDIMNLLIKSGA [FEM1C] were 2.54 ± 0.1 and 2.78 ± 0.12.

As for NLLGEAAGGQDMADSMLMQGSRGL [HDAC6], the protein stability index is, setting by setting: (treatment: DMSO) 4.1 ± 0.34; (treatment: MLN4924 1 uM, 8 h) 4.09 ± 0.081.

Turning to ISSIGQVQSYMEHYCNSSTDRRVL [SPACA9], the protein stability index by setting is: (treatment: DMSO) 3.23 ± 0.33; (treatment: MLN4924 1 uM, 8 h) 3.25 ± 0.36. Taken in the same sequence, the figures for VHRKSCSTGEAGTDGDHNVYPRPP [ZC2HC1C] were 4.29 ± 0.33 and 4.45 ± 0.37. Taken in the same sequence, the figures for VHRDLKPENLLLASKCKGAAVKLA [CAMK2B] were 2.83 ± 0.38 and 2.75 ± 0.25. Taken in the same sequence, the figures for IFLYARPNSTFPIDKSMTVVLTFI [OR4A15] were 2.84 ± 0.37 and 3 ± 0.3. Regarding PPVTDLGELRRRPGDMKTKMELLI [CPOX], the protein stability index was found to be 3.2 ± 0.36 (treatment: DMSO) and 3.03 ± 0.3 (treatment: MLN4924 1 uM, 8 h). On to SGSQRHMVGQKDSVILSVKFSPFG [TLE6], for which the protein stability index worked out at 2.2 ± 0.27 (treatment: DMSO) and 2.49 ± 0.22 (treatment: MLN4924 1 uM, 8 h). On to LRPSYTGLSSSSARFLSRSIPSLQ [CDC14A], for which the protein stability index was determined as 3.04 ± 0.38 (treatment: DMSO) and 2.85 ± 0.29 (treatment: MLN4924 1 uM, 8 h). Taken in the same sequence, the figures for EDSINNSLVQLQASHQQQVLPPRQ [MYBL2] were 4.93 ± 0.14 and 4.72 ± 0.19.

For SHQNLRVDDLSVEWDAMGGKVQDI [FSD1], the protein stability index stood at 4.49 ± 0.19 (treatment: DMSO) and 4.47 ± 0.28 (treatment: MLN4924 1 uM, 8 h). Taken in the same sequence, the figures for GFSSIPDAFWWAVVTMTTVGYGDM [KCNA3] were 3.06 ± 0.47 and 3.25 ± 0.27. Take YTSAGTYGLDSVKKKCLEWLLNNL [GMCL1]: the protein stability index reads like this: (treatment: DMSO) 2.17 ± 0.19; (treatment: MLN4924 1 uM, 8 h) 2.16 ± 0.26. Consider GATPSYHWDLAELLPNQSHGNQSA [SLC22A15], for which the protein stability index reads like this: (treatment: DMSO) 4.06 ± 0.19; (treatment: MLN4924 1 uM, 8 h) 4.22 ± 0.33. Take GKETLTPSELRDLVTQQLPHLMPS [S100A14]: the protein stability index was 3.94 ± 0.65 (treatment: DMSO) and 3.99 ± 0.12 (treatment: MLN4924 1 uM, 8 h). Taken in the same sequence, the figures for TDLIWKNQNSWGTGEDVKVILKNS [LMNB1] were 3.47 ± 0.44 and 3.74 ± 0.26.

For the sequence EVTDTGDPIVRPLWWIAPGDETAH [MYORG], the protein stability index by setting is: (treatment: DMSO) 4.25 ± 0.28; (treatment: MLN4924 1 uM, 8 h) 4.38 ± 0.35. Taken in the same sequence, the figures for SCHGYTLPGACNIPANVSNCNWFC [KRT33B] were 2.53 ± 0.52 and 2.42 ± 0.5.

As to SGGELFDFLAEKESLTEDEATQFL [DAPK3], the protein stability index (treatment: DMSO) was 4.84 ± 0.19 and the protein stability index (treatment: MLN4924 1 uM, 8 h) was 4.96 ± 0.47. Taken in the same sequence, the figures for VQYLGQAPELLGGAEPGTYLTGTI [ADAMTS4] were 2.33 ± 0.7 and 2.98 ± 0.72. EIEQYRLQREKEFKAKEAAALGSR [ATP6V1G1]: the protein stability index stood at 4.15 ± 0.21 (treatment: DMSO) and 3.77 ± 0.047 (treatment: MLN4924 1 uM, 8 h). Taken in the same sequence, the figures for DIAAMTNSLFIDRQKCMAHRTRYP [TEKT4] were 2.45 ± 0.24 and 2.57 ± 0.19. As for CPTFRVSIARLEMGPDEYEEMEEE [FBXO3], the protein stability index is, setting by setting: (treatment: DMSO) 4.7 ± 0.18; (treatment: MLN4924 1 uM, 8 h) 5.07 ± 0.21. As for KEYDVARNTGAYTSSGLATASFRT [TEKT4], the protein stability index came out at 3.6 ± 0.26 (treatment: DMSO) and 3.69 ± 0.14 (treatment: MLN4924 1 uM, 8 h). Taken in the same sequence, the figures for PDFNPEKHGSLNRYHNSHPLRERA [YJU2B] were 4.36 ± 0.21 and 4.37 ± 0.29. Taken in the same sequence, the figures for GLTDVSQIITVTVQTGLDQYQQVP [IQUB] were 2.26 ± 0.085 and 2.47 ± 0.23.

In the case of LLLLQVSSSYAGQFRVIGPRHPIR [MOG], the protein stability index by setting is: (treatment: DMSO) 2.53 ± 0.51; (treatment: MLN4924 1 uM, 8 h) 2.04 ± 0.22. Taken in the same sequence, the figures for QLSPNLDLDPLELIALANRFCLPH [RHOBTB1] were 2.27 ± 0.11 and 2.44 ± 0.11. Regarding DPDGLVATYISEVHEHDGHLYLGS [APMAP], the protein stability index was determined as 3.87 ± 0.18 (treatment: DMSO) and 3.94 ± 0.39 (treatment: MLN4924 1 uM, 8 h).

For the sequence LNATSKFMEFYQDVKDWWLFGFYF [EDNRA], the protein stability index by setting is: (treatment: DMSO) 2.49 ± 0.86; (treatment: MLN4924 1 uM, 8 h) 2.13 ± 0.37. Taken in the same sequence, the figures for EVKRAFFSKSKELHPDRDPGNPSL [DNAJC4] were 3.89 ± 0.12 and 4.03 ± 0.37. Taken in the same sequence, the figures for FSAPDPPRPRPVSLSLRLPHQPVT [SMTNL2] were 3.77 ± 0.12 and 3.91 ± 0.27. Taken in the same sequence, the figures for SQKNEKALTNIQNCMAEKRETVLI [C8orf76] were 3.54 ± 0.29 and 3.69 ± 0.19. With MSFLSRQQPPPPRRAGAACTLRQK [WEE1], the protein stability index was found to be 3.94 ± 0.2 (treatment: DMSO) and 3.88 ± 0.24 (treatment: MLN4924 1 uM, 8 h). Taken in the same sequence, the figures for EHKLKVVRDQISHCTVKLRQTTGL [TRIM9] were 3.35 ± 0.13 and 3.24 ± 0.25. Taken in the same sequence, the figures for CKVGASSDPCGQLRPTLLLTSLHH [PNLIPRP1] were 2.1 ± 0.24 and 2.22 ± 0.097. Taken in the same sequence, the figures for KGAILTTMLATRNFSAAKSLLKKP [CAMK2D] were 2.82 ± 0.53 and 2.8 ± 0.32. As to ALTNIQNCMAEKRETVLIETQLKA [C8orf76], the protein stability index runs as follows: (treatment: DMSO) 3.19 ± 0.34; (treatment: MLN4924 1 uM, 8 h) 3.09 ± 0.47. Taken in the same sequence, the figures for TWVPMFLSTLLAPYQALRLWARGT [SOAT2] were 2.81 ± 0.48 and 2.72 ± 0.64. Taken in the same sequence, the figures for FPAEERARVLDRRGCSRVEGGGTS [ANKRD9] were 4.42 ± 0.2 and 4.53 ± 0.28. Taken in the same sequence, the figures for LCKNLNREAQQYSEALASTRILKH [GLIPR2] were 3.57 ± 0.32 and 3.74 ± 0.33. SFRENWQRAWVRALNEQACRNGSS [C2CD2L] yielded a protein stability index (treatment: DMSO) of 2.7 ± 0.24 and a protein stability index (treatment: MLN4924 1 uM, 8 h) of 2.45 ± 0.49. Regarding ELEGDVAEPLAGPACVTVILPSCV [KLHL14], the protein stability index is, setting by setting: (treatment: DMSO) 3.32 ± 0.54; (treatment: MLN4924 1 uM, 8 h) 3.14 ± 0.14. Taken in the same sequence, the figures for APAASEGAAAPATPTPVAAALDAC [SNAP91] were 5.32 ± 0.23 and 5.18 ± 0.31. Taken in the same sequence, the figures for APGADVKVHRARKTMPKSVVGLHA [EHMT1] were 3.7 ± 0.18 and 3.91 ± 0.41. Taken in the same sequence, the figures for DANTWRLYGGMNYRRLGGGVGVIK [KLHL20] were 2.63 ± 0.24 and 2.54 ± 0.38. With PKTNEDFEFLYNALEFWRQEELTR [IQUB], the protein stability index reads like this: (treatment: DMSO) 2.63 ± 0.31; (treatment: MLN4924 1 uM, 8 h) 2.23 ± 0.43. Taken in the same sequence, the figures for QSRRTALATSPITVGDLGIVRRRS [YJU2B] were 4.27 ± 0.16 and 4.36 ± 0.25. Taken in the same sequence, the figures for EHQNKRSPLHAAAEAGHVDICHML [EHMT1] were 3.98 ± 0.27 and 3.94 ± 0.12.

Turning to FYRSTAPSEDIWKKFELVPSPPTS [MYCL], the protein stability index worked out at 2.67 ± 0.15 (treatment: DMSO) and 2.76 ± 0.32 (treatment: MLN4924 1 uM, 8 h). Taken in the same sequence, the figures for TYRSLLESEDCKLPSNPCATTNAC [KRT33B] were 3.99 ± 0.26 and 4.04 ± 0.072. GAQVKELEEKCQQPASELLQDVRV [TRIM15]: the protein stability index by setting is: (treatment: DMSO) 5.4 ± 0.36; (treatment: MLN4924 1 uM, 8 h) 5.43 ± 0.12.

Turning to GVPPLKLCKNLNREAQQYSEALAS [GLIPR2], the protein stability index (treatment: DMSO) stood at 3.89 ± 0.44 and the protein stability index (treatment: MLN4924 1 uM, 8 h) amounted to 3.96 ± 0.14.
